Results as given in patent publication US20120316071A1.
Changes are numbered by the printed parent chain. In names and notes the source's numbering stands.

Tests used:
[1] = biological target: human Delta-like ligand 4 (DLL4), full-length, expressed on CHO cells (human) (UniProt Q9NR61); test: cell-based or functional assay
[2] = biological target: rHuman P-Cadherin/Fc Chimera, CF (R&D Systems Cat#861-PC) (human) (UniProt P22223); test: Multispot ECL (MSD), antigen spotted on plate, Fab 580 nM; blank spot 679
[3] = biological target: rHuman P-Cadherin/Fc Chimera, CF (R&D Systems Cat#861-PC) (human) (UniProt P22223); test: Multispot ECL (MSD), antigen spotted on plate, Fab […]; blank spot 276
[4] = biological target: rHuman P-Cadherin/Fc Chimera, CF (R&D Systems Cat#861-PC) (human) (UniProt P22223); test: Multispot ECL (MSD), antigen spotted on plate, Fab […]; blank spot 357
[5] = biological target: rHuman P-Cadherin/Fc Chimera, CF (R&D Systems Cat#861-PC) (human) (UniProt P22223); test: Multispot ECL (MSD), antigen spotted on plate, Fab 36.3 nM; blank spot 314
[6] = biological target: rHuman ErbB2/Fc Chimera, CF (R&D Systems Cat#1129-ER) (human) (UniProt P04626); test: ECL multispot (MSD) binding assay, antigen spotted on plate, Fab 0.04 uM
[7] = biological target: Recombinant Human DLL4 (R&D Systems Cat#1506-D4/CF) (human) (UniProt Q9NR61); test: ECL (MSD) binding assay, immobilised DLL4
[8] = biological target: Recombinant Human DLL4 (R&D Systems Cat#1506-D4/CF) (human) (UniProt Q9NR61); test: ELISA, DLL4 coated on plate, Fab at […]
[9] = biological target: Recombinant Human DLL4 (R&D Systems Cat#1506-D4/CF) (human) (UniProt Q9NR61); test: ELISA, DLL4 coated on plate, Fab at 2.22 nM
[10] = biological target: Recombinant Human DLL4 (R&D Systems Cat#1506-D4/CF) (human) (UniProt Q9NR61); test: ELISA, DLL4 coated on plate, Fab at 20 nM
[11] = biological target: Recombinant Human DLL4 (R&D Systems Cat#1506-D4/CF) (human) (UniProt Q9NR61); test: ELISA, DLL4 coated on plate, Fab at 0.74 nM
[12] = biological target: Recombinant Human DLL4 (delta-like protein 4) (human) (UniProt Q9NR61); test: ELISA, DLL4 coated on plate, Fab at 12.5 nM (2-fold dilution series), absorbance at 450 nm
[13] = biological target: Recombinant Human DLL4 (delta-like protein 4) (human) (UniProt Q9NR61); test: ELISA, DLL4 coated on plate, Fab at 100 nM (2-fold dilution series), absorbance at 450 nm
[14] = biological target: Recombinant Human DLL4 (delta-like protein 4) (human) (UniProt Q9NR61); test: ELISA, DLL4 coated on plate, Fab at 50 nM (2-fold dilution series), absorbance at 450 nm
[15] = biological target: Recombinant Human DLL4 (delta-like protein 4) (human) (UniProt Q9NR61); test: ELISA, DLL4 coated on plate, Fab at 25 nM (2-fold dilution series), absorbance at 450 nm
[16] = biological target: rHuman Notch-1/Fc Chimera, CF (R&D Systems Cat#3647-TK) (human) (UniProt P46531); test: ECL multispot (MSD) assay, antigen spotted on plate, 20 nM Fab

B1: Fab VH6-1_IGHD6-13*01_IGHJ4*01 and V2-17_IGLJ2*01 (Fab, V domains shown)
VH: QVQLQQSGPGLVKPSQTLSLTCAISGDSVSSNSAAWNWIRQSPSRGLEWLGRTYYRSKWYNDYAVSVKSRITINPDTSKNQFSLQLNSVTPEDTAVYYCAREGYSSSWYDYFDYWGQGTLVTVSS
VL: SYELTQPPSVSVSPGQTARITCSGDALPKQYAYWYQQKPGQAPVLVIYKDSERPSGIPERFSGSSSGTTVTLTISGVQAEDEADYYCQSADSSGTYPVVFGGGTKLTVL
- Notch1 luciferase reporter luminescence, T98G reporter cells + CHO-DLL4, 0.8 nM Fab, replicate 1 [1]: 4480
- Notch1 luciferase reporter luminescence, T98G reporter cells + CHO-DLL4, 0.8 nM Fab, replicate 2 [1]: 4540
- Notch1 luciferase reporter luminescence, T98G reporter cells + CHO-DLL4, 0.8 nM Fab, replicate 3 [1]: 3910
- Notch1 luciferase reporter luminescence, T98G reporter cells + CHO-DLL4, 0.8 nM Fab, replicate 4 [1]: 4220
- Notch1 luciferase reporter luminescence, T98G reporter cells + CHO-DLL4, 4 nM Fab, replicate 1 [1]: 4810
- Notch1 luciferase reporter luminescence, T98G reporter cells + CHO-DLL4, 4 nM Fab, replicate 2 [1]: 4920
- Notch1 luciferase reporter luminescence, T98G reporter cells + CHO-DLL4, 4 nM Fab, replicate 3 [1]: 4190
- Notch1 luciferase reporter luminescence, T98G reporter cells + CHO-DLL4, 4 nM Fab, replicate 4 [1]: 4520
- Notch1 luciferase reporter luminescence, T98G reporter cells + CHO-DLL4, 20 nM Fab, replicate 1 [1]: 5400
- Notch1 luciferase reporter luminescence, T98G reporter cells + CHO-DLL4, 20 nM Fab, replicate 2 [1]: 4990
- Notch1 luciferase reporter luminescence, T98G reporter cells + CHO-DLL4, 20 nM Fab, replicate 3 [1]: 4320
- Notch1 luciferase reporter luminescence, T98G reporter cells + CHO-DLL4, 20 nM Fab, replicate 4 [1]: 4550
- Notch1 luciferase reporter luminescence, T98G reporter cells + CHO-DLL4, 100 nM Fab, replicate 1 [1]: 4820
- Notch1 luciferase reporter luminescence, T98G reporter cells + CHO-DLL4, 100 nM Fab, replicate 2 [1]: 4810
- Notch1 luciferase reporter luminescence, T98G reporter cells + CHO-DLL4, 100 nM Fab, replicate 3 [1]: 4030
- Notch1 luciferase reporter luminescence, T98G reporter cells + CHO-DLL4, 100 nM Fab, replicate 4 [1]: 4470

B2: Fab VH4-34_IGHD7-27*01_IGHJ4*01 & V1-4_IGLJ4*01 (Fab, V domains shown)
VH: QVQLQQWGAGLLKPSETLSLTCAVYGGSFSGYYWSWIRQPPGKGLEWIGEINHSGSTNYNPSLKSRVTISVDTSKNQFSLKLSSVTAADTAVYYCARANWGDYFDYWGQGTLVTVSS
VL: QSALTQPASVSGSPGQSITISCTGTSSDVGGYNYVSWYQQHPGKAPKLMIYEVSNRPSGVSNRFSGSKSGNTASLTISGLQAEDEADYYCSSYTSSSTLFVFGGGTQLIIL
- ECL signal at 580 nM Fab [2]: 2240
- ECL signal at 9.1 nM Fab [3]: 589
- ECL signal at 145 nM Fab [4]: 850
- ECL signal at 36.3 nM Fab [5]: 684

B3: Fab VH5-51_IGHD5-18*01>3_IGHJ4*01 G100K/G104T (H:KT) & V3-4_IGLJ1*01 L92A (Fab, V domains shown)
VH: EVQLVQSGAEVKKPGESLKISCKGSGYSFTSYWIGWVRQMPGKGLEWMGIIYPGDSDTRYSPSFQGQVTISADKSISTAYLQWSSLKASDTAMYYCARRKYSYTYDYFDYWGQGTLVTVSS
VL: QTVVTQEPSFSVSPGGTVTLTCGLSSGSVSTSYYPSWYQQTPGQAPRTLIYSTNTRSSGVPDRFSGSILGNKAALTITGAQADDESDYYCVAYMGSGISYVFGTGTKVTVL
- ECL signal [6]: 1370

B4: Fab VH5-51_IGHD5-18*01>3_IGHJ4*01 G100K/G104T S28R & V3-4_IGLJ1*01 M94R/S96M (L:RM) (Fab, V domains shown)
VH: B3 VH with S28R
VL: B3 VL with A92L, M94R, S96M
- ECL signal [7]: 530

B5: Fab VH5-51_IGHD5-18*01>3_IGHJ4*01 G100K/G104T G24L/S28R/G35V & V3-4_IGLJ1*01 M94R/S96M (L:RM) (Fab, V domains shown)
VH: B3 VH with G24L, S28R, G35V
VL: B3 VL with A92L, M94R, S96M
- ECL signal [7]: 889

B6: Fab VH5-51_IGHD5-18*01>3_IGHJ4*01 G100K/G104T G24A/S28R/G35V & V3-4_IGLJ1*01 M94R/S96M (L:RM) (Fab, V domains shown)
VH: B3 VH with G24A, S28R, G35V
VL: B3 VL with A92L, M94R, S96M
- ECL signal [7]: 1200

B7: Fab VH5-51_IGHD5-18*01>3_IGHJ4*01 G100K/G104T G24L/S28R/G35V (H:KT LRV) & V3-4_IGLJ1*01 M94R/S96M (L:RM) (Fab, V domains shown)
VH: B3 VH with G24L, S28R, G35V
VL: B3 VL with A92L, M94R, S96M
- ELISA signal [8]: 0
- ELISA signal [9]: 0
- ELISA signal [10]: 0.003
- ELISA signal [11]: 0

B8: Fab VH5-51_IGHD5-18*01>3_IGHJ4*01 G100K/G104T G24A/S28R/G35V (H:KT ARV) & V3-4_IGLJ1*01 M94R/S96M (L:RM) (Fab, V domains shown)
VH: B3 VH with G24A, S28R, G35V
VL: B3 VL with A92L, M94R, S96M
- ELISA signal [8]: 0.034
- ELISA signal [9]: 0
- ELISA signal [10]: 0.006
- ELISA signal [11]: 0

B9: Fab VH5-51_IGHD5-18*01>3_IGHJ4*01 G100K/G104T G24L/S28R/G35V Y105H & V3-4_IGLJ1*01 (wildtype) (Fab, V domains shown)
VH: B3 VH with G24T, S28R, G35V, Y105H
VL: B3 VL with A92L
- ELISA signal [12]: 0.21
- ELISA signal [13]: 0.23
- ELISA signal [14]: 0.2
- ELISA signal [15]: 0.19

B10: Fab VH5-51_IGHD5-18*01>3_IGHJ4*01 G100K/G104T G24T/S28R/G35V Y105N & V3-4_IGLJ1*01 (wildtype) (Fab, V domains shown)
VH: B3 VH with G24T, S28R, G35V, Y105N
VL: B3 VL with A92L
- ELISA signal [12]: 0.21
- ELISA signal [13]: 0.25
- ELISA signal [14]: 0.18
- ELISA signal [15]: 0.19

B11: Fab VH5-51_IGHD5-18*01>3_IGHJ4*01 G100K/G104T G24A/S28R/G35V Y107F & V3-4_IGLJ1*01 (wildtype) (Fab, V domains shown)
VH: B3 VH with G24T, S28R, G35V, Y107F
VL: B3 VL with A92L
- ELISA signal [12]: 0.21
- ELISA signal [13]: 0.28
- ELISA signal [14]: 0.24
- ELISA signal [15]: 0.2

B12: Fab VH5-51_IGHD5-18*01>3_IGHJ4*01 G100K/G104T G24L/S28R/G35V D109Q & V3-4_IGLJ1*01 (wildtype) (Fab, V domains shown)
VH: B3 VH with G24T, S28R, G35V, D109Q
VL: B3 VL with A92L
- ELISA signal [12]: 0.24
- ELISA signal [13]: 0.3
- ELISA signal [14]: 0.25
- ELISA signal [15]: 0.22

B13: Fab VH3-23_IGHD2-21*01>3_IGHJ6*01 H100E/S108P/Y113G T58A & V2-13_IGLJ2*01 (Fab, V domains shown)
VH: EVQLLESGGGLVQPGGSLRLSCAASGFTFSSYAMSWVRQAPGKGLEWVSSISGSGGSAYYADSVKGRFTISRDNSKNTLYLQMNSLRAEDTAVYYCAKEEIVVVIAIPYYYYGYGMDVWGQGTLVTVSS
VL: SSELTQDPAVSVALGQTVRITCQGDSLRSYYASWYQQKPGQAPVLVIYGKNNRPSGIPDRFSGSSSGNTASLTITGAQAEDEADYYCNSRDSSGNHLVVFGGGTKLTVL
- ECL signal/blank ratio (read-out not given) [16]: 3.1

B14: Fab VH3-23_IGHD2-21*01>3_IGHJ6*01 H100E/S108P/Y113G D62A & V2-13_IGLJ2*01 (Fab, V domains shown)
VH: B13 VH with A58T, D62A
VL: B13 VL
- ECL signal/blank ratio (read-out not given) [16]: 3.5
